From US20190256610A1 (NATIONAL UNIVERSITY CORPORATION HOKKAIDO UNIVERSITY, published 2019)
Where a chain is given by its changes, count along the chain named. Blank lines part the entries; values can stand above or below the binder they belong to.

Legend:
human Eva1 protein [1] = target: T1, human Eva1 protein (human, UniProt O60487 27-150, limits assumed); assay: SPR (Biacore), antibody captured by anti-mouse IgG, Eva1 flowed
T1 construct: Soluble analyte in the SPR work and partner in the crystal; it calls it 'the antigen, that is, the Eva1 protein'; also called human-derived Eva1 protein; hEva1
T1 sequence: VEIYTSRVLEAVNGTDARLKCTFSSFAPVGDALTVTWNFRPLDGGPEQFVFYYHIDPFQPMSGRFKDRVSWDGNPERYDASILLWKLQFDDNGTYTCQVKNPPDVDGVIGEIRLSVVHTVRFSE
Source text: (§1) To select hybridomas for producing antibodies having a higher antigen affinity from the 28 hybridomas, a surface plasmon resonance assay system Biacore was used to calculate the KD value and so forth of each antibody (hereinafter also referred to as “candidate antibody”). Concretely, first, an antibody capable of capturing mouse IgG was immobilized on a dextran-coated sensor chip (CMS, manufactured by GE health care). Then, this antibody captured each candidate antibody on the sensor chip. Subsequently, the antigen, that is, the Eva1 protein was flowed. Note that, in flowing the antigen, a solution of 10 mM-Tris-HCl (pH 7.5), 150 mM-NaCl, and 3 mM-EDTA (pH 8.0) was used. Moreover, as a solution for dissociating the antigen from the candidate antibody (captured candidate-antibody resuscitation solution), a 10 mM glycine solution (pH 1.7) was used. Thus, using these solutions, the binding reaction and the dissociation reaction between each candidate antibody and the antigen were detected with Biacore, and analyzed using the attached software.

human Eva1 S96A mutant = target: T2, human Eva1 S96A mutant (human, UniProt O60487 27-150, limits assumed); assay: SPR with alanine mutants
T2 chain: T1 sequence with S70A

[2] = target: T3, human Eva1 mutant with arginine at position 103 substituted with alanine (human, UniProt O60487 27-150, limits assumed); assay: SPR with alanine mutants
T3 construct: also called R103A
T3 chain: T1 sequence with R77A

[3] = target: T4, human Eva1 mutant with glutamic acid at position 102 substituted with alanine (human, UniProt O60487 27-150, limits assumed); assay: SPR with alanine mutants
T4 construct: also called E102A
T4 chain: T1 sequence with E76A

human Eva1 Y30A mutant = target: T5, human Eva1 Y30A mutant (human, UniProt O60487 27-150, limits assumed); assay: SPR
T5 chain: T1 sequence with Y4A

human Eva1 protein [4] = target: T1, human Eva1 protein; assay: SPR (Biacore), as for the mouse antibodies
Source text: as §1
Further, the binding reaction and the dissociation reaction between the B2E5-48 chimeric antibody and the antigen were detected with Biacore as in the case of the mouse antibodies.

[5] = target: T6, human Eva1 mutant (R33G, V34A, V134L, I135V, E137T) (human, UniProt O60487 27-150, limits assumed); assay: SPR
T6 construct: Human residues replaced by the mouse ones
T6 chain: T1 sequence with R7G, V8A, V108L, I109V, E111T

human Eva1 L68R mutant = target: T7, human Eva1 L68R mutant (human, UniProt O60487 27-150, limits assumed); assay: SPR
T7 chain: T1 sequence with L42R

[6] = target: T8, human Eva1 mutant (L68R, P72R) (human, UniProt O60487 27-150, limits assumed); assay: SPR
T8 construct: Human residues replaced by the mouse ones; also called (L68R and P72R) double mutant
T8 chain: T1 sequence with L42R, P46R

human Eva1 P72R mutant = target: T9, human Eva1 P72R mutant (human, UniProt O60487 27-150, limits assumed); assay: SPR
T9 chain: T1 sequence with P46R

mouse Eva1 protein = target: T10, mouse Eva1 protein (mouse, UniProt O70255 27-150, limits assumed); assay: SPR
T10 construct: Used in SPR; also called mouse-derived Eva1 protein; mEva1
T10 sequence: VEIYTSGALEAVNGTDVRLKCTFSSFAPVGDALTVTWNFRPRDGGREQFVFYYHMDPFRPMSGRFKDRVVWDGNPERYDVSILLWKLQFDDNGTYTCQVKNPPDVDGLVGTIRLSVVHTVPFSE

[7] = target: T11, human Eva1 mutant (A43V, S96V, Q85R) (human, UniProt O60487 27-150, limits assumed); assay: SPR
T11 construct: Human residues replaced by the mouse ones
T11 chain: T1 sequence with A17V, Q59R, S70V

human Eva1 mutant (I81M) = target: T12, human Eva1 mutant (I81M) (human, UniProt O60487 27-150, limits assumed); assay: SPR
T12 construct: Human residue replaced by the mouse one
T12 chain: T1 sequence with I55M

human Eva1 Y104A mutant = target: T13, human Eva1 Y104A mutant (human, UniProt O60487 27-150, limits assumed); assay: SPR with alanine mutants
T13 chain: T1 sequence with Y78A

human Eva1 protein [8] = target: T1, human Eva1 protein; assay: SPR

- Kd (human Eva1 protein [1]): 5.83 nM
- koff (human Eva1 protein [1]): 0.00212 s⁻¹
- kon (human Eva1 protein [1]): 364000 M⁻¹ s⁻¹
- binding result (human Eva1 S96A mutant): binds
- fold increase of KD against wild type human Eva1 [2]: ~25 fold
- fold increase of KD against wild type human Eva1 [3]: ~25 fold
- binding result (human Eva1 Y30A mutant): no binding
B1: A5D11-10 mouse antibody (antibody, V domains shown)
VH: EVQLKESGPGLVQPSQSLSITCTVSGFSLTRYGVHWVRQSPGKGLEWLGVIWSGGSTDYNAAFISRLSISKDNSKSQVFFKMNSLQANDTAIYYCARNGYDGGYAMDYWGQGTSVTVSS
VL: DIQMTQTTSSLSASLGDRVTISCRASQDISNYLNWYQQKPDGTVKLLIYYTSRLHSGVPSRFSGSGSRIDYSLTISNLEQEDFATYFCQQSDTLPPWTFGGGTKLEIK
notes: Mouse monoclonal from a hybridoma; also called A5D11-10 antibody

- Kd (human Eva1 protein [4]): 15.2 nM
- koff (human Eva1 protein [4]): 0.00747 s⁻¹
- kon (human Eva1 protein [4]): 490000 M⁻¹ s⁻¹
B2: B2E5-48 chimeric antibody (antibody, V domains shown)
VH: QVQLQQPGAELVKPGASVKLSCKASGYTFTNYWMHWVKLRPGQGFEWIGEINPTNGGTDYNEKFKRKATLTVDKSSSTAYMQLSSLTSEDSAVYYCTIYTTALDYWGQGTTLTVSS
VL: QIVLTQSPALMSASPGERVTLTCSASSSVGYMYWYQQKPGSSPKPWIYVTSNLASGVPARFSGSGSGTSYSLTISSMEAEDAATYYCQQWSSNPPTFGAGTKLELK

- Kd (human Eva1 protein [1]): 11.7 nM
- koff (human Eva1 protein [1]): 0.00808 s⁻¹
- kon (human Eva1 protein [1]): 689000 M⁻¹ s⁻¹
- binding result [5]: binds
- binding result (human Eva1 L68R mutant): binds
- binding result [6]: no binding
- binding result (human Eva1 P72R mutant): no binding
- binding result (mouse Eva1 protein): no binding
- binding result [7]: binds
- binding result (human Eva1 mutant (I81M)): binds
B3: B2E5-48 mouse antibody (antibody, mouse IgG2b, V domains shown)
VH: B2 VH
VL: B2 VL
notes: Mouse monoclonal from a hybridoma; also called B2E5-48 antibody

- Kd (human Eva1 protein [1]): 9.1 nM
- koff (human Eva1 protein [1]): 0.00831 s⁻¹
- kon (human Eva1 protein [1]): 918000 M⁻¹ s⁻¹
- binding result (human Eva1 Y104A mutant): binds
- KD for human Eva1 against KD for mouse Eva1 (human Eva1 protein [8]): ~0.1
B4: C3 mouse antibody (antibody, mouse IgG1, V domains shown)
VH: EVKLVESGGGLVQPGGSLKLSCAASGFTFSSYTMSWVRQTPEKRLEWVAYITTGAGRTYYPDTVKGRFTISRDNAKNTLYLQMSSLKSEDTAMYYCARHRGDYWGQGTSVTVSS
VL: SIVMTQTPKFLLVSAGDRVTITCKASQSVSNDVAWYQQKPGQSPKLLIYYASNRFTGVPDRFTGSGYGTDFTFTISTVQAEDLAVYFCQQDYSSPWTFGGGTKLEIK
notes: Mouse monoclonal from a hybridoma; also called C3 antibody
